Key:
histone H3 = histone H3 (UniProt P68432); assay: fluorescence spectroscopy (acrylodan-labelled PfNapS titrated with histone); details: read off a plot
[1] = biological target: PfNapS residues 29-221 (crystallised construct) (Plasmodium falciparum); assay: crystal structure; hanging drop vapour diffusion at 20°C, 0.2 M di-ammonium tartrate, 20% PEG 3350; space group P212121, three dimers in the asymmetric unit; Se-SAD at 3.2 Å, native data to 2.8 Å

Row | stoichiometry N [1] | Substance | response (histone H3; Histone H3 5 microgram) | response (histone H3; Histone H3 10 microgram) | response (histone H3; Histone H3 15 microgram) | response (histone H3; Histone H3 20 microgram) | response (histone H3; Histone H3 25 microgram) | response (histone H3; Histone H3 30 microgram)
1 | – | PfNapS labelled with acrylodan (PfNapS^dye) C47A | 0.55 | 0.56 | 0.6 | 0.61 | 0.64 | 0.63
2 | 2 | PfNapS residues 29-221 (crystallised construct) (domain or fragment) | – | – | – | – | – | –
